Test results taken from paper doi:10.1101/2020.10.19.345710 (bioRxiv, 2020).
Where a chain is given by its changes, count along the chain named. Numbers in names are those of the source.

Biological target: the molecule itself
Experiment: thioflavin T fluorescence

B1: FUS LC, low complexity domain of Fused in sarcoma (FUS), residues 1-163 (domain or fragment, UniProt P35637 1-163, looked up)
chain: MASNDYTQQATQSYGAYPTQPGQGYSQQSSQPYGQQSYSGYSQSTDTSGYGQSSYSSYGQSQNTGYGTQSTPQGYGSTGGYGSSQSSQSSYGQQSSYPGYGQQPAPSSTSGSYGSSSQSSSYGQPQSGSYSQQPSYGGQQQSYGQQQSYNPPQGYGQQNQYNS
  binding result: binds

B2: FUS LC G156E, low complexity domain of FUS (residues 1-163) with the pathogenic G156E mutation (domain or fragment, UniProt P35637 1-163, looked up)
chain: B1 chain with G156E
  binding result: binds
